Experimental findings from patent publication EP4748861A1 (Duality Biologics (Suzhou) Co., Ltd., dated 2025) are described below.

In experiment [1] the target is T1, human EGFR (His-Avi Tag, Kactus Biosystem, EGF-HM401) (human, UniProt P00533 25-645).
T1 construct: Bought soluble protein used as SPR analyte; also called hEGFR; not shown: His-Avi tag
The experiment can be described thus: SPR, Biacore T200; ratio of affinities.

The next experiment has as its target T2, human EGFR on cells (human, UniProt P00533 25-1210).
T2 construct: whole, on cells; the cell line is named under assay; also called EGFR-CT26; EGFR/CT26 (EGFR+++, HER3-)
The experiment can be described thus: flow cytometry on EGFR-CT26 cells, PE anti-human IgG Fc.

In the next experiment the target is T3, human HER3 on cells (human, UniProt P21860 20-1342).
T3 construct: whole, on cells; Used as target for cells that carry HER3 alone (HER3-CT26) and for the anti-HER3 mAb on tumor lines that carry both receptors; the cell line is named under assay; also called HER3-CT26; HER3/CT26 (EGFR-, HER3+++)
The experiment can be described thus: flow cytometry on HER3-CT26 cells, PE anti-human IgG Fc. For orientation: A flow cytometer gives signals particle by particle.

In experiment [2] the target is T4, monkey HER3 (rhesus HER3, C-His Tag, Kactus Biosystem, HER-CM403) (rhesus monkey, UniProt H9ERZ8 20-643).
T4 construct: Bought soluble protein used as SPR analyte; not shown: C-terminal His tag
T4 sequence (H9ERZ8 entry or part of it): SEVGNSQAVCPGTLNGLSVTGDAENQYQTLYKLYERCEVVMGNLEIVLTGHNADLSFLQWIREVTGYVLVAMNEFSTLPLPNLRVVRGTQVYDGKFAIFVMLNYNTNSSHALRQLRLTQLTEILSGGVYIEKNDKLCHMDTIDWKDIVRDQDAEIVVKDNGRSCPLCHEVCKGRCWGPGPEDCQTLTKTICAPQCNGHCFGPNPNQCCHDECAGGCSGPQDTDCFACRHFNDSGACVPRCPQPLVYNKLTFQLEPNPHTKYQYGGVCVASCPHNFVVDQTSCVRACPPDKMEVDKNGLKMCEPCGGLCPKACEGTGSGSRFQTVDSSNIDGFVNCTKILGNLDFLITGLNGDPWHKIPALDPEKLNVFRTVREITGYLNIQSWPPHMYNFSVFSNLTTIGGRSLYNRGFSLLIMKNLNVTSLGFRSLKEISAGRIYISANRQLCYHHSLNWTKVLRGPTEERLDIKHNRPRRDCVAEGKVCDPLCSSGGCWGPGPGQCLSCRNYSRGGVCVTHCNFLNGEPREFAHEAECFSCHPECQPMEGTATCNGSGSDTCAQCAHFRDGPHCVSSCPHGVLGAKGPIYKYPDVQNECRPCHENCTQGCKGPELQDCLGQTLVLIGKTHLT
The experiment can be described thus: SPR, Biacore T200; antibody captured on ProA chip, antigen as analyte; 1:1 Langmuir fit. (In general: In SPR one partner is held on a chip, and binding of the other changes the refractive index at the surface.)

Experiment [3] deals with T1, human EGFR (His-Avi Tag, Kactus …). The experiment is described as above.
In experiment [4] the target is T5, human HER3 (His-Avi Tag, Kactus Biosystem, HER-HM403) (human, UniProt P21860 20-643).
T5 construct: Bought soluble protein used as SPR analyte; also called hHER3; not shown: His-Avi tag
Described as above.

For experiment [5], the target named is T6, monkey EGFR (rhesus EGFR, C-His Tag, Kactus Biosystem, EGF-CM101) (rhesus monkey, UniProt P55245 25-645, limits assumed).
T6 construct: Bought soluble protein used as SPR analyte; not shown: C-terminal His tag
Described as above.

B1: DBXT001-01 (bispecific antibody, human IgG1, kappa)
heavy 1: not shown
light 1: not shown
heavy 2: not shown
light 2: DIQMTQSPSSLSASVGDRVTITCRASQDISNYLNWYQQKPGKAPKLLIYYTSILHSGVPSRFSGSGSGTDYTFTISSLQPEDIATYFCQQGDTLPPTFGGGTKLEIKSSASTKGPSVFPLAPSSKSTSGGTAALGCLVKDYFPEPVTVSWNSGALTSGVHTFPAVLQSSGLYSLSSVVTVPSSSLGTQTYICNVNHKPSNTKVDKKVEPKSC
notes: H1/L1 are the EGFR arm, H2/L2 the HER3 arm; one arm for each antigen; also called BsAb DBXT001-01; EGFR-HER3 BsAb
For the molecule B1, the “fold weaker affinity than its affinity for HER3” value in experiment [1] is ~16 fold. The “fold weaker affinity than the parent EGFR antibody” value in experiment [1] was ~3 fold. For the same molecule, the EC50 (usually the midpoint of the concentration-response curve) in the experiment with human EGFR on cells amounted to 1.9 nM; with human HER3 on cells, 1.96 nM. For the same molecule, the Kd (commonly the concentration at which binding is half-saturated) stood at 0.563 nM in experiment [2], 9.29 nM in experiment [3], 0.56 nM in experiment [4] and 11.3 nM in experiment [5]. The koff (in general, the rate constant with which the complex falls apart) in experiment [2] came out at 0.000157 s⁻¹; in experiment [3] it was 0.00055 s⁻¹; in experiment [4], 0.00018 s⁻¹; in experiment [5], 0.000534 s⁻¹. The on-rate constant (kon) (in general, the rate constant with which the complex forms) was 278000 M⁻¹ s⁻¹ in experiment [2], 59200 M⁻¹ s⁻¹ in experiment [3], 322000 M⁻¹ s⁻¹ in experiment [4] and 47200 M⁻¹ s⁻¹ in experiment [5].

B2: anti-HER3 mAb (antibody, human IgG1, kappa, V domains shown)
VH: QVQLQESGPGLVKPSETLSLTCTVSGYSITSAYYWNWIRQPFGKGLEWMGYISYDGRNNFNPSLKNRVTISRDTSKNQFSLKLSSVTAADTAVYYCARDGDYDYFDYWGQGTTVTVSS
VL: DIQMTQSPSSLSASVGDRVTITCRASQDISNYLNWYQQKPGKAPKLLIYYTSILHSGVPSRFSGSGSGTDYTFTISSLQPEDIATYFCQQGDTLPPTFGGGTKLEIKR
notes: expressed in CHO cells; also called HER3 parent mAb; parent HER3 antibody
B2 had an EC50 with human HER3 on cells of 0.28 nM. For the same molecule, in experiment [4], the Kd was determined as 0.493 nM, the koff was 0.000379 s⁻¹ and the on-rate (kon) worked out at 768000 M⁻¹ s⁻¹.
